For this assay, the target named is microtubules assembled from porcine brain tubulin (porcine) (UniProt P02550).
Chain of microtubules assembled from porcine brain tubulin (porcine) (P02550 whole entry, chain 1 of 2): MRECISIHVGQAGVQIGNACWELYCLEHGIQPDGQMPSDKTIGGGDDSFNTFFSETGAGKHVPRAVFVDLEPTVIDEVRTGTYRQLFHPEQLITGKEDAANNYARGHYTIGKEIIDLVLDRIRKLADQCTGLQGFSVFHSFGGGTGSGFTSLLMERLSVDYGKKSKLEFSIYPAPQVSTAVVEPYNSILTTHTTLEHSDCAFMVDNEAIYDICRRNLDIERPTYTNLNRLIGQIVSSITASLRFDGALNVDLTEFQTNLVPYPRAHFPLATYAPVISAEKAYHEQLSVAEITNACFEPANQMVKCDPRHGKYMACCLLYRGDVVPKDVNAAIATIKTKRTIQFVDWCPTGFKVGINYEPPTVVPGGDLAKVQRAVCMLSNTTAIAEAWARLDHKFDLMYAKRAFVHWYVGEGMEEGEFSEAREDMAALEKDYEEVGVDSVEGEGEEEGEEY
Chain of microtubules assembled from porcine brain tubulin (porcine) (P02554 whole entry, chain 2 of 2, further chain): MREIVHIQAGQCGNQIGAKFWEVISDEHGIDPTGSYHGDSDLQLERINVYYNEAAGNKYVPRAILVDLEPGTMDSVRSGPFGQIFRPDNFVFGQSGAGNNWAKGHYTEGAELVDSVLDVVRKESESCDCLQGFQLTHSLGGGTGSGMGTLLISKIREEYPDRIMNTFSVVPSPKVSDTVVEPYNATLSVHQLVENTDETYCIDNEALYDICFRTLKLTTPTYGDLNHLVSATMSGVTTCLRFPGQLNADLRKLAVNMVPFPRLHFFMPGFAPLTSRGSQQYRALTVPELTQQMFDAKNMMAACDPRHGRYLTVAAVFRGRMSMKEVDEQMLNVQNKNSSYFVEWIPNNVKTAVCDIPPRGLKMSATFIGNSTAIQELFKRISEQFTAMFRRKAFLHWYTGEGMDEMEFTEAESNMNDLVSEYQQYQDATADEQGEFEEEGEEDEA

In the case of “TTLL6 with R403 and R407 mutated to alanine (from UniProt A4Q9E8 51-502) (enzyme)”, the glutamylation activity with taxol-stabilized MTs, normalized to WT is 55 % of WT.

In the case of “TTLL6 with R415 and R418 mutated to alanine (from UniProt A4Q9E8 51-502) (enzyme)”, the glutamylation activity with taxol-stabilized MTs, decrease against WT is 47 % decrease.

These data come from publication PMC11529724.
